By Km is commonly meant the substrate concentration at which the rate is half of its maximum. In general, kcat refers to the maximal rate divided by the concentration of active sites. The term kcat/Km denotes the second-order rate constant that governs catalysis at low substrate concentration.

One protein from patent US20190029975A1, “TOCOPHEROL AND TOCOTRIENOL QUINONE DERIVATIVES FOR INCREASING THIOSULFATE LEVELS OR DECREASING HYDROGEN SULFIDE LEVELS” (BIOELECTRON TECHNOLOGY CORPORATION, priority 2016, published 2019) can be followed below.

Substrate in this data set: CC(C)=CCC/C(C)=C/CC/C(C)=C/CC[C@@](C)(O)CCC1=C(C)C(=O)C(C)=C(C)C1=O
Briefly: Kinetic parameters of EPI-743 with SQOR. Conditions: other: 200 micromolar Na2S, 2 mM Na2SO3, pH 7.5, reduced oxygen (<1000 ppm), 30.0 °C. In kind it is biochemical, human. From the text: Human sulfide:quinone oxidoreductase (SQOR) protein was expressed and purified according to the method described in Jackson, M.R., et al. “Human Sulfide:Quinone Oxidoreductase Catalyzes the First Step in Hydrogen Sulfide Metabolism and Produces a Sulfane Sulfur Metabolite”, Biochemistry, Publication Date (Web): 1 Aug 2012, with the following exceptions: (1) a chaperone plasmid set (Plasmid pG-KJE8, plasmid #1 in catalog no. 3340) from Takara Bio Inc. (Japan) was used; (2) DHPC detergent was replaced with the following: 1.0% (w/v) CHAPS, 0.5% deoxycholate, or 1.0% octylmaltoside. The detergent was used in the initial lysis buffer, and removed in the IMAC purification step (no detergents in the storage conditions); (3) the ion-exchange (Q-sepharose) chromatography step was not used in the purification. The final SQOR protein contained amino acids 42-450 of the human SQOR protein.
Target protein was purified on IMAC to ≥90% purity (on Ni resin). Target protein was stored in 25 mM Tris pH 7.5, 150mM NaCl, 2 mM DTT 20% glycerol.
EPI-743 was assayed for activity with SQOR. […]
Briefly, SQOR enzyme, compound, inorganic sulfide (200 micromolar Na2S) and a sulfur acceptor (2 mM Na2SO3) were brought together. The reduction of the quinone substrate to hydroquinone product in the presence of sulfide ion, sulfur acceptor and SQOR enzyme was monitored by the decrease in quinone concentration over time, by observing the UV signal diagnostic for the specific quinone (See Table 3):
General assay conditions: Assays were performed in 100 mM Tris, pH 7.5, 0.5 mM EDTA. SQOR was included at approximately 5 nM, as estimated by total protein concentration determined by Bradford assay with BSA as standard and the estimated purity of SQOR from SDS-PAGE. […]
The kinetic parameters of compounds with SQOR were determined by varying the concentration of the compound over a suitable range and interrogating the impact of that variation on the enzymatic rate.
The parameters kcat and Km, for example, can be determined by nonlinear fitting of the rate data to the Michaelis-Menten equation: […]

B1: Human sulfide:quinone oxidoreductase (SQOR) (Homo sapiens) (protein)
chain: NHYEVLVLGGGSGGITMAARMKRKVGAENVAIVEPSERHFYQPIWTLVGAGAKQLSSSGRPTASVIPSGVEWIKARVTELNPDKNCIHTDDDEKISYRYLIIALGIQLDYEKIKGLPEGFAHPKIGSNYSVKTVEKTWKALQDFKEGNAIFTFPNTPVKCAGAPQKIMYLSEAYFRKTGKRSKANIIFNTSLGAIFGVKKYADALQEIIQERNLTVNYKKNLIEVRADKQEAVFENLDKPGETQVISYEMLHVTPPMSPPDVLKTSPVADAAGWVDVDKETLQHRRYPNVFGIGDCTNLPTSKTAAAVAAQSGILDRTISVIMKNQTPTKKYDGYTSCPLVTGYNRVILAEFDYKAEPLETFPFDQSKERLSMYLMKADLMPFLYWNMMLRGYWGGPAFLRKLFHLGMS
notes: The final SQOR protein contained amino acids 42-450 of the human SQOR protein; His tag (inferred from IMAC purification on Ni resin); made in house; E. coli is inferred from the Takara chaperone plasmid pG-KJE8 and from own knowledge of the cited Jackson et al. 2012 method
Turning to B1, the Km was found to be 200 µM, the kcat turned out to be 76 s⁻¹ and the kcat/Km was 400000 M⁻¹ s⁻¹.
